The values below are quoted from earlier work in paper doi:10.1101/2022.02.18.481064.

For the data set, the target named is Cys106 (UniProt position 106, LIAAICAGPTA). As to conditions: Reduced Cys106 thiol/thiolate is implied. The state is otherwise not stated.

On to “DJ-1 (Parkinson disease protein 7, PARK7) (Homo sapiens)”, for which the pKa is reported as 5.4.

By pKa is commonly meant the pH at which an ionisable group is half protonated.
